Source: the supplement of paper PMC5998384

How the values were obtained:
[1] = tested on: HeLa Kyoto; assay: solubility in G1/S (NP-40 vs SDS abundance) (log2 ratio); higher = more soluble; settings: cell cycle stage: G1/S
[2] = tested on: HeLa Kyoto; assay: solubility change mitosis vs G1/S (difference of NP-40 vs SDS log2 ratios) (log2 ratio difference); higher = more soluble in mitosis
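Wherever solubility change mitosis vs G1/S (difference of NP-40 vs SDS log2 ratios) is given: synchronized HeLa Kyoto cells (double thymidine block for G1/S, nocodazole release for mitosis), protein amounts in NP-40 versus SDS lysates quantified by mass spectrometry, three biological replicates.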
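Wherever solubility in G1/S (NP-40 vs SDS abundance) is given: HeLa Kyoto cells arrested at G1/S by double thymidine block, proteins quantified by TMT10plex mass spectrometry in mild NP-40 versus SDS extracts, three biological replicates.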

DGKZ, sequence (chain, as listed by the source): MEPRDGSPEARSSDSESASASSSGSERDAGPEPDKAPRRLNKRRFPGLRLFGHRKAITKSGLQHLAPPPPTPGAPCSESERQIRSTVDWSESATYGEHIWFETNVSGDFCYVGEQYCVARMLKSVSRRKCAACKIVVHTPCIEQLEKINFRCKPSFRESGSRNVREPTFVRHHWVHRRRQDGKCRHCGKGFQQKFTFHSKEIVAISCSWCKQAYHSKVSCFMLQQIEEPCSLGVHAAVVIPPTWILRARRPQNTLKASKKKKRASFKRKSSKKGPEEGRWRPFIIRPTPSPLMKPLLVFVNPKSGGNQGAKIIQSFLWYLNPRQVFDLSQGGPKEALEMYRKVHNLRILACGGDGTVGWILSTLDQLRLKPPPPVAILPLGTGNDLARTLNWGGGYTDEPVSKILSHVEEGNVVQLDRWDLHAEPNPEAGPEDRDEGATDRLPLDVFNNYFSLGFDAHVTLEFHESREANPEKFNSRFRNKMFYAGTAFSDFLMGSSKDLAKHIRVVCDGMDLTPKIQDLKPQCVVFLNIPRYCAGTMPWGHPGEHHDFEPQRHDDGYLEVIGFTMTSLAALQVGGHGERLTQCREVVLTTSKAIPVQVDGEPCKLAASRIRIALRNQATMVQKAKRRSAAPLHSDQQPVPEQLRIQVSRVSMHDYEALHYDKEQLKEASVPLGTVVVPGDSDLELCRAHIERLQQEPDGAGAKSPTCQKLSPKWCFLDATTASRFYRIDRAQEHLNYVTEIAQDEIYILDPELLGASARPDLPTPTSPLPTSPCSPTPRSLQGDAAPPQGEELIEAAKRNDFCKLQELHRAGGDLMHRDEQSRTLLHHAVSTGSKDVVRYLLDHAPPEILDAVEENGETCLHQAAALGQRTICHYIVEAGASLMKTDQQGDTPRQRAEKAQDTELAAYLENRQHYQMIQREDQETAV
KCT2, sequence (chain, as listed by the source): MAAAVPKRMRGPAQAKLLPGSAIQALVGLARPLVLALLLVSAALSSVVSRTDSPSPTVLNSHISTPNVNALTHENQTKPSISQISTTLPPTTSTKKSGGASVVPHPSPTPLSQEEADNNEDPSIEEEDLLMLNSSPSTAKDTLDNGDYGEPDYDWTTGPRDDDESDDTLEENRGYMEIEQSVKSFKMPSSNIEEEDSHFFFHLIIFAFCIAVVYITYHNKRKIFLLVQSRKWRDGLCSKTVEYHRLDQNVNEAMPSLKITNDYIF
COL4A1, sequence (chain, as listed by the source): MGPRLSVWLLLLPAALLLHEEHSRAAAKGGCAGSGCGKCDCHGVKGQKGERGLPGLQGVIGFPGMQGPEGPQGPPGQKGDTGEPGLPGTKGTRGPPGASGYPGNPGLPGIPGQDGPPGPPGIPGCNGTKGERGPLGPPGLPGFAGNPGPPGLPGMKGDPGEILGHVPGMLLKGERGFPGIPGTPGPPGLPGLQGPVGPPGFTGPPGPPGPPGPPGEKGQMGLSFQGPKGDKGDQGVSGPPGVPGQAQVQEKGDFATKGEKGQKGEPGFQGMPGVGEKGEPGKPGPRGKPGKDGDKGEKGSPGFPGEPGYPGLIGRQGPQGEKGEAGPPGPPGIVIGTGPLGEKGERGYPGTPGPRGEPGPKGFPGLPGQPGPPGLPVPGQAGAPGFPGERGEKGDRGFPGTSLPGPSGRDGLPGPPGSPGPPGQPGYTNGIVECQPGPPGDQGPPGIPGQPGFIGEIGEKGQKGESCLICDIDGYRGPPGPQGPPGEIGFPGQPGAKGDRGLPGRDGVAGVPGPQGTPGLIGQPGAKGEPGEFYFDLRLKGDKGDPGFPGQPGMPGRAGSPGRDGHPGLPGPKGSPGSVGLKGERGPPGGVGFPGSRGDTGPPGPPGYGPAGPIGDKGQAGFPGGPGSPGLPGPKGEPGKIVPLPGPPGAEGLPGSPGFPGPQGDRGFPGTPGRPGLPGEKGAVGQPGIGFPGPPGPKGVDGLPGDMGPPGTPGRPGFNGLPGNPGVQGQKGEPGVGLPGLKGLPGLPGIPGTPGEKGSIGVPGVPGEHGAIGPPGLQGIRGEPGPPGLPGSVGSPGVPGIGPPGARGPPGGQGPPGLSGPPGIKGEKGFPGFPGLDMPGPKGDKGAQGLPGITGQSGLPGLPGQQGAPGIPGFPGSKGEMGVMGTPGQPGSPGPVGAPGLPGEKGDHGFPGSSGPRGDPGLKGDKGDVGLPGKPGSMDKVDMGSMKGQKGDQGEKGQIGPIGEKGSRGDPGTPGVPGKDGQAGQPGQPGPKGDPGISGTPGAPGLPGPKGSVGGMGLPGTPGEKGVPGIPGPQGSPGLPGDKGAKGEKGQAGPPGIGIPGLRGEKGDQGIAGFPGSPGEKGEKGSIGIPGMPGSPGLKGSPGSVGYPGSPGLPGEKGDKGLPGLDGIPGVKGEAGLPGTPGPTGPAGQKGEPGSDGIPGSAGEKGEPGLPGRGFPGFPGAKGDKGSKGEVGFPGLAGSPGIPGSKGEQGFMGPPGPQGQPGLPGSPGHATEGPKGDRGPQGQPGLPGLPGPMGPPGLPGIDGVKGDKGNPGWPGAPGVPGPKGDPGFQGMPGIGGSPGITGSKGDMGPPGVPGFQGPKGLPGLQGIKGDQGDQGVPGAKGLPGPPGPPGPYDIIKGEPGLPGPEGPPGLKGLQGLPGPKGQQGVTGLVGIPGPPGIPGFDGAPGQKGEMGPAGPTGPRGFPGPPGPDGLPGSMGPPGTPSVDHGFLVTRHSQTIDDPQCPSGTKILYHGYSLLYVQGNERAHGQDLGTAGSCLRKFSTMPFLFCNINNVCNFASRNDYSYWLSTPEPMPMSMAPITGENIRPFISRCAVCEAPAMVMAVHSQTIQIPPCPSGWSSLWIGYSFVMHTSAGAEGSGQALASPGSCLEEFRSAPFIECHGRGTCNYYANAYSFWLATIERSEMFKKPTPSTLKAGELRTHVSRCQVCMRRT
KLF4, sequence (chain, as listed by the source): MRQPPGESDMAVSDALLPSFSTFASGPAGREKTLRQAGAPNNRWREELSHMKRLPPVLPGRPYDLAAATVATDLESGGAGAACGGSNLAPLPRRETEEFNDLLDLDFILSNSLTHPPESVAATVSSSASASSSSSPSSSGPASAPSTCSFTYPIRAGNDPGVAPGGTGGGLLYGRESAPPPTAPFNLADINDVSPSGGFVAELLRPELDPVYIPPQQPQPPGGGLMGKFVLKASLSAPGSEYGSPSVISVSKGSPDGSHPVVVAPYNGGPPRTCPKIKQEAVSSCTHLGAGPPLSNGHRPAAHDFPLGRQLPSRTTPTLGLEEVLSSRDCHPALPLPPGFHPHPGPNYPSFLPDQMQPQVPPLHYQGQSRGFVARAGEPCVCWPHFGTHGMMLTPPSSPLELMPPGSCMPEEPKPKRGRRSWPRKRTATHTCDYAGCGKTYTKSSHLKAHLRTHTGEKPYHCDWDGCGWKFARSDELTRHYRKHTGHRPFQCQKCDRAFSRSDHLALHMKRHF
KLF16, sequence (chain, as listed by the source): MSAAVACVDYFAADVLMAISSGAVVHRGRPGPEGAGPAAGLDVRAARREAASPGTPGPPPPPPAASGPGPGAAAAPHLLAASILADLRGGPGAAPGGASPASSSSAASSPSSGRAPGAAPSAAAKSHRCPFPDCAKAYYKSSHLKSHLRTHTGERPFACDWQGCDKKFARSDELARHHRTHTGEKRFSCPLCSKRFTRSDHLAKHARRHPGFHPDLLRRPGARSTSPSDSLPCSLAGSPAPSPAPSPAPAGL
HOXC10, sequence (chain, as listed by the source): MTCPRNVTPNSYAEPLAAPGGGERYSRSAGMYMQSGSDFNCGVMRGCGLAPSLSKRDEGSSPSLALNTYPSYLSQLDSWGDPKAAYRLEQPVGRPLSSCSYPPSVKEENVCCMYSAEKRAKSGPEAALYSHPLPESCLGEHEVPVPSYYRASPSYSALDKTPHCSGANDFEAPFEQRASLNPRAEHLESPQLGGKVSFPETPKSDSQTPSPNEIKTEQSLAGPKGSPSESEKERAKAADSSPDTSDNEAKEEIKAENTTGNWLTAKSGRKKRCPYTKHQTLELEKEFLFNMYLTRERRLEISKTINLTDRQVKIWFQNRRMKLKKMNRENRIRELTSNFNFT
DNLZ, sequence (chain, as listed by the source): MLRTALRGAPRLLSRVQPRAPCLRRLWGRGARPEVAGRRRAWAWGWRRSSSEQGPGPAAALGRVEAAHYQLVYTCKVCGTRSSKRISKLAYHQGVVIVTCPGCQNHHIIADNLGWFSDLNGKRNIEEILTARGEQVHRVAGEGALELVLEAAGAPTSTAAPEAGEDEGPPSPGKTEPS

CENPE
solubility in G1/S (log2) [1]: -0.0612
solubility change mitosis (log2) [2]: -0.1

CEP295
solubility in G1/S (log2) [1]: 0.074
solubility change mitosis (log2) [2]: -0.138

CHD2
solubility in G1/S (log2) [1]: -1.9
solubility change mitosis (log2) [2]: 0.389

CHD7
solubility in G1/S (log2) [1]: -0.18
solubility change mitosis (log2) [2]: 0.0296

COL4A1
solubility in G1/S (log2) [1]: -0.0938
solubility change mitosis (log2) [2]: 0.225

CROCC
solubility in G1/S (log2) [1]: 0.091
solubility change mitosis (log2) [2]: -0.109

DGKZ
solubility in G1/S (log2) [1]: 0.0613
solubility change mitosis (log2) [2]: 0.323

DNLZ
solubility in G1/S (log2) [1]: -0.145
solubility change mitosis (log2) [2]: 0.242

HECTD4
solubility in G1/S (log2) [1]: -0.212
solubility change mitosis (log2) [2]: 0.00851

HOXC10
solubility in G1/S (log2) [1]: 0.535
solubility change mitosis (log2) [2]: -0.0635

IFT140
solubility in G1/S (log2) [1]: -0.373
solubility change mitosis (log2) [2]: 0.0597

JAG2
solubility in G1/S (log2) [1]: -0.54
solubility change mitosis (log2) [2]: 0.351

KCT2
solubility in G1/S (log2) [1]: 0.0557
solubility change mitosis (log2) [2]: -0.29

KLF4
solubility in G1/S (log2) [1]: -0.0723
solubility change mitosis (log2) [2]: 0.0866

KLF16
solubility in G1/S (log2) [1]: 0.106
solubility change mitosis (log2) [2]: 0.0196

MAAAADSFSGGPAGVRLPRSPPLKVLAEQLRRDAEGGPGAWRLSRAAAGRGPLDLAAVWMQGRVVMADRGEARLRDPSGDFSVRGLERVPRGRPCLVPGKYVMVMGVVQACSPEPCLQAVKMTDLSDNPIHESMWELEVEDLHRNIP [RMI2]
solubility in G1/S (log2) [1]: 0.374
solubility change mitosis (log2) [2]: 0.168

MAAAATAAEGVPSRGPPGEVIHLNVGGKRFSTSRQTLTWIPDSFFSSLLSGRISTLKDETGAIFIDRDPTVFAPILNFLRTKELDPRGVHGSSLLHEAQFYGLTPLVRRLQLREELDRSSCGNVLFNGYLPPPVFPVKRRNRHSLVGPQQLGGRPAPVRRSNTMPPNLGNAGLLGRMLDEKTPPSPSGQPEEPGMVRLVCGHHNWIAVAYTQFLVCYRLKEASGWQLVFSSPRLDWPIERLALTARVHGGALGEHDKMVAAATGSEILLWALQAEGGGSEIGVFHLGVPVEALFFVGNQLIATSHTGRIGVWNAVTKHWQVQEVQPITSYDAAGSFLLLGCNNGSIYYVDVQKFPLRMKDNDLLVSELYRDPAEDGVTALSVYLTPKTSDSGNWIEIAYGTSSGGVRVIVQHPETVGSGPQLFQTFTVHRSPVTKIMLSEKHLISVCADNNHVRTWSVTRFRGMISTQPGSTPLASFKILALESADGHGGCSAGNDIGPYGERDDQQVFIQKVVPSASQLFVRLSSTGQRVCSVRSVDGSPTTAFTVLECEGSRRLGSRPRRYLLTGQANGSLAMWDLTTAMDGLGQAPAGGLTEQELMEQLEHCELAPPAPSAPSWGCLPSPSPRISLTSLHSASSNTSLSGHRGSPSPPQAEARRRGGGSFVERCQELVRSGPDLRRPPTPAPWPSSGLGTPLTPPKMKLNETSF [SHKBP1]
solubility in G1/S (log2) [1]: -0.0414
solubility change mitosis (log2) [2]: -0.00881

MAAAEEGCSVGAEADRELEELLESALDDFDKAKPSPAPPSTTTAPDASGPQKRSPGDTAKDALFASQEKFFQELFDSELASQATAEFEKAMKELAEEEPHLVEQFQKLSEAAGRVGSDMTSQQEFTSCLKETLSGLAKNATDLQNSSMSEEELTKAMEGLGMDEGDGEGNILPIMQSIMQNLLSKDVLYPSLKEITEKYPEWLQSHRESLPPEQFEKYQEQHSVMCKICEQFEAETPTDSETTQKARFEMVLDLMQQLQDLGHPPKELAGEMPPGLNFDLDALNLSGPPGASGEQCLIM [PEX19]
solubility in G1/S (log2) [1]: -0.302
solubility change mitosis (log2) [2]: 0.402

MAAAFRKAAKSRQREHRERSQPGFRKHLGLLEKKKDYKLRADDYRKKQEYLKALRKKALEKNPDEFYYKMTRVKLQDGVHIIKETKEEVTPEQLKLMRTQDVKYIEMKRVAEAKKIERLKSELHLLDFQGKQQNKHVFFFDTKKEVEQFDVATHLQTAPELVDRVFNRPRIETLQKEKVKGVTNQTGLKRIAKERQKQYNCLTQRIEREKKLFVIAQKIQTRKDLMDKTQKVKVKKETVNSPAIYKFQSRRKR [UTP11L]
solubility in G1/S (log2) [1]: -2.71
solubility change mitosis (log2) [2]: 1.5

MAAAKPTLTDSLSFCLAQLAAAAGEALGGEKDPATNETPLSRALLALRTRHIKAAGGIERFRARGGLRPLLALLRRAAAAGSAPSQAGPGSAPSSAASGASSPAPASGPAPSAVSSSSPTPPVRLRKTLDLALSILADCCTEGACRTEVRRLGGILPLVTILQCMKTDSIQNRTARALGNLAMEPESCGDIHCAGAVPLLVESLTACQDSQCLQSVVRALRNLADSPQHRLALAQQGAVRPLAELLATAPDAALTLALVRALLELSRGCSRACAEQLSLGGGLGPLVSLASHPKRAVREGTILILANLCAQGLIRPALGNAGGVEVLVDELRQRRDPNGASPTSQQPLVRAVCLLCREAINRARLRDAGGLDLLMGLLRDPRASAWHPRIVAALVGFLYDTGALGRLQALGLVPLLAGQLCGEAGEEEEEGREAASWDFPEERTPERAQGGSFRSLRSWLISEGYATGPDDISPDWSPEQCPPEPMEPASPAPTPTSLRAPRTQRTPGRSPAAAIEEPWGREGPALLLLSRFSQAPDPSGALVTGPALYGLLTYVTGAPGPPSPRALRILSRLTCNPACLEAFVRSYGAALLRAWLVLGVAPDDWPAPRARPTLHSRHRELGERLLQNLTVQAESPFGVGALTHLLLSGSPEDRVACALTLPFICRKPSLWRRLLLEQGGLRLLLAALTRPAPHPLFLFFAADSLSCLQDLVSPTVSPAVPQAVPMDLDSPSPCLYEPLLGPAPVPAPDLHFLLDSGLQLPAQRAASATASPFFRALLSGSFAEAQMDLVPLRGLSPGAAWPVLHHLHGCRGCGAALGPVPPPGQPLLGSEAEEALEAAGRFLLPGLEEELEEAVGRIHLGPQGGPESVGEVFRLGRPRLAAHCARWTLGSEQCPRKRGLALVGLVEAAGEEAGPLTEALLAVVMGIELGARVPA [ARMC5]
solubility in G1/S (log2) [1]: 0.0745
solubility change mitosis (log2) [2]: 0.0453

MAAEEADVDIEGDVVAAAGAQPGSGENTASVLQKDHYLDSSWRTENGLIPWTLDNTISEENRAVIEKMLLEEEYYLSKKSQPEKVWLDQKEDDKKYMKSLQKTAKIMVHSPTKPASYSVKWTIEEKELFEQGLAKFGRRWTKISKLIGSRTVLQVKSYARQYFKNKVKCGLDKETPNQKTGHNLQVKNEDKGTKAWTPSCLRGRADPNLNAVKIEKLSDDEEVDITDEVDELSSQTPQKNSSSDLLLDFPNSKMHETNQGEFITSDSQEALFSKSSRGCLQNEKQDETLSSSEITLWTEKQSNGDKKSIELNDQKFNELIKNCNKHDGRGIIVDARQLPSPEPCEIQKNLNDNEMLFHSCQMVEESHEEEELKPPEQEIEIDRNIIQEEEKQAIPEFFEGRQAKTPERYLKIRNYILDQWEICKPKYLNKTSVRPGLKNCGDVNCIGRIHTYLELIGAINFGCEQAVYNRPQTVDKVRIRDRKDAVEAYQLAQRLQSMRTRRRRVRDPWGNWCDAKDLEGQTFEHLSAEELAKRREEEKGRPVKSLKVPRPTKSSFDPFQLIPCNFFSEEKQEPFQVKVASEALLIMDLHAHVSMAEVIGLLGGRYSEVDKVVEVCAAEPCNSLSTGLQCEMDPVSQTQASETLAVRGFSVIGWYHSHPAFDPNPSLRDIDTQAKYQSYFSRGGAKFIGMIVSPYNRNNPLPYSQITCLVISEEISPDGSYRLPYKFEVQQMLEEPQWGLVFEKTRWIIEKYRLSHSSVPMDKIFRRDSDLTCLQKLLECMRKTLSKVTNCFMAEEFLTEIENLFLSNYKSNQENGVTEENCTKELLM [MYSM1]
solubility in G1/S (log2) [1]: -0.108
solubility change mitosis (log2) [2]: -0.109

MAAENSKQFWKRSAKLPGSIQPVYGAQHPPLDPRLTKNFIKERSKVNTVPLKNKKASSFHEFARNTSDAWDIGDDEEEDFSSPSFQTLNSKVALATAAQVLENHSKLRVKPERSQSTTSDVPANYKVIKSSSDAQLSRNSSDTCLRNPLHKQQSLPLRPIIPLVARISDQNASGAPPMTVREKTRLEKFRQLLSSQNTDLDELRKCSWPGVPREVRPITWRLLSGYLPANTERRKLTLQRKREEYFGFIEQYYDSRNEEHHQDTYRQIHIDIPRTNPLIPLFQQPLVQEIFERILFIWAIRHPASGYVQGINDLVTPFFVVFLSEYVEEDVENFDVTNLSQDMLRSIEADSFWCMSKLLDGIQDNYTFAQPGIQKKVKALEELVSRIDEQVHNHFRRYEVEYLQFAFRWMNNLLMRELPLRCTIRLWDTYQSEPEGFSHFHLYVCAAFLIKWRKEILDEEDFQGLLMLLQNLPTIHWGNEEIGLLLAEAYRLKYMFADAPNHYRR [TBC1D22B]
solubility in G1/S (log2) [1]: -0.183
solubility change mitosis (log2) [2]: -0.0568

MAAFGRQVLDWHRLIPLTWACMARQTPHLGEQRRTTASLLRKLTTASNGGVIEELSCVRSNNYVQEPECRRNLVQCLLEKQGTPVVQGSLELERVMSSLLDMGFSNAHINELLSVRRGASLQQLLDIISEFILLGLNPEPVCVVLKKSPQLLKLPIMQMRKRSSYLQKLGLGEGKLKRVLYCCPEIFTMRQQDINDTVRLLKEKCLFTVQQVTKILHSCPSVLREDLGQLEYKFQYAYFRMGIKHPDIVKSEYLQYSLTKIKQRHIYLERLGRYQTPDKKGQTQIPNPLLKDILRVSEAEFLARTACTSVEEFQVFKKLLAREEEESESSTSDDKRASLDEDEDDDDEEDNDEDDNDEDDDDEDDDEAEDNDEDEDDDEEE [MTERF4]
solubility in G1/S (log2) [1]: 0.434
solubility change mitosis (log2) [2]: -0.0189

MAAIAASEVLVDSAEEGSLAAAAELAAQKREQRLRKFRELHLMRNEARKLNHQEVVEEDKRLKLPANWEAKKARLEWELKEEEKKKECAARGEDYEKVKLLEISAEDAERWERKKKRKNPDLGFSDYAAAQLRQYHRLTKQIKPDMETYERLREKHGEEFFPTSNSLLHGTHVPSTEEIDRMVIDLEKQIEKRDKYSRRRPYNDDADIDYINERNAKFNKKAERFYGKYTAEIKQNLERGTAV [SYF2]
solubility in G1/S (log2) [1]: 0.12
solubility change mitosis (log2) [2]: 0.188

MAALKEDRSYGLSCGRVSDGSKVSVFHVKLTDSALRAFESYRARQDSVSLRPSIRFQGSQGHISIPQPDCPAEARTFSFYLSNIGRDNPQGSFDCIQQYVSSHGEVHLDCLGSIQDKITVCATDDSYQKARQSMAQAEEETRSRSAIVIKAGGRYLGKKVQFRKPAPGATDAVPSRKRATPINLASAIRKSGASAVSGGSGVSQRPFRDRVLHLLALRPYRKAELLLRLQKDGLTQADKDALDGLLQQVANMSAKDGTCTLQDCMYKDVQKDWPGYSEGDQQLLKRVLVRKLCQPQSTGSLLGDPAASSPPGERGRSASPPQKRLQPPDFIDPLANKKPRISHFTQRAQPAVNGKLGVPNGREALLPTPGPPASTDTLSSSTHLPPRLEPPRAHDPLADVSNDLGHSGRDCEHGEAAAPAPTVRLGLPLLTDCAQPSRPHGSPSRSKPKKKSKKHKDKERAAEDKPRAQLPDCAPATHATPGAPADTPGLNGTCSVSSVPTSTSETPDYLLKYAAISSSEQRQSYKNDFNAEYSEYRDLHARIERITRRFTQLDAQLRQLSQGSEEYETTRGQILQEYRKIKKTNTNYSQEKHRCEYLHSKLAHIKRLIAEYDQRQLQAWP
solubility in G1/S (log2) [1]: -0.0524
solubility change mitosis (log2) [2]: 0.218
